{
  "source": "patent US20100099079",
  "tested_on": "5-FAM/QXL 520 NS3 FRET substrate",
  "data": [
    {"substance": "Recombinant HCV NS3/4A protease", "values": [
      {"measurement": "NS3 FRET activity (5-FAM dequenching)", "value": "FRET signal increased with increasing amounts of purified NS3, revealing a linear correlation (R^2=0.999) between NS3 protein levels and FRET activity"}
    ]}
  ]
}
